In patent US20200199579A1, “Rapid Display Method in Translational Synthesis of Peptide” (PeptiDream Inc., priority 2009, published 2020):

Key:
TNF-α = target: T1, TNF-α (Homo sapiens, UniProt P01375); experiment: Verification of mapping: recovery from a 100:1 EMP1SS / TNF-α-DW mixture by TNF-α pull-down, PCR and gel electrophoresis; assay type: binding; details: an21-Phe linker; mRNA or cDNA input; FIG. 6
T1 construct: made in house; host or cells: E. coli (co-expressed with biotin ligase BirA)
T1 sequence (P01375 with tags, fused parts or gaps): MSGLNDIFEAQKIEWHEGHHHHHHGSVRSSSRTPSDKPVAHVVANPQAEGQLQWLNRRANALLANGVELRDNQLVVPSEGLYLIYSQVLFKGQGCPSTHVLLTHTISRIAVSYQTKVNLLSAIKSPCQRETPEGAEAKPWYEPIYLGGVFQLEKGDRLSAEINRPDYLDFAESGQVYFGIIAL
Experimental: This mixture was used to perform experiments similar to those described above, and the recovered DNA was amplified by PCR under the following conditions. That is, 20 μL of a reaction solution containing Taq polymerase and a test sample solution in PCR (taq-) buffer was prepared and reacted by temperature cycling of 30 cycles of {94° C. 40 sec, 61° C. 40 sec, 72° C. 40 sec} (with a slope of 0.5° C./sec from 61° C. to 72° C.) using a thermal cycler. 2.5 μL of the reaction product solution was separated by electrophoresis using a gel consisting of TAE (40 mM Tris-acetate, 1 mM EDTA) and 3% agarose (low electroendosmosis, NACALAI TESQUE, INC.), and electrophoretograms were obtained under a transilluminator after staining with ethidium bromide.
A band derived from the mRNA encoding TNF-α-DW is observed at the position of about 90 bp, while a band derived from the mRNA encoding the control EMP1SS is observed at the position of about 150 bp. When the an21-ACCA linker containing no peptidyl acceptor was used, only a band derived from the mRNA of EMP1SS was observed, reflecting the molar ratio of the two types of cDNA in the initial mixture.

[1] = target: T2, Human tumor necrosis factor-alpha (TNF-α) (Homo sapiens, UniProt P01375); experiment: Yield of peptide-mRNA complexes presenting TNF-α-DW, recovered with biotinylated TNF-α on streptavidin beads and quantified by real-time PCR; details: peptide aptamer TNF-α-DW
T2 construct: made in house; host or cells: E. coli (co-expressed with biotin ligase BirA)
T2 sequence (P01375 with tags, fused parts or gaps): as above
Experimental: In the case where an mRNA is preliminarily prepared by transcription reaction and then translated into a peptide and the resulting peptide is fused to a linker, a peptide-mRNA complex was prepared by the following procedure. First, 4 mM sodium acetate, pH 5.0 and mRNA were mixed in 1:3, and the mixture was heated on a thermoblock at 95° C. for 1 minute and then allowed to stand at room temperature for 5 min. A 25 μM linker solution dissolved in 1 mM sodium acetate was added and the mixture was allowed to stand for 10 minutes to form an mRNA-linker complex. To this were added the other components of the translation system and the mixture was incubated in a constant-temperature water bath (NT-202D, Nissin Scientific Corporation) at 37° C. for 30 minutes, then at room temperature for 12 min, and 0.1 M EDTA (ethylenediaminetetraacetic acid, molecular biology grade, NACALAI TESQUE, INC.) adjusted to pH 7.5 was added at a final concentration of 20 mM, and the mixture was further incubated in the constant-temperature water bath at 37° C. for 30 minutes.
In the case where a cDNA is added to a reaction solution and transcription, translation and fusion to a linker are performed in this reaction solution, a peptide-mRNA complex was prepared by the following procedure. […]

Substance	binding of the presented peptide to the target protein (TNF-α)	yield of peptide-mRNA complexes ([1]; cDNA added to the reaction solution (one-pot transcription/translation), FIG. 5)	yield of peptide-mRNA complexes ([1]; mRNA added to the translation reaction solution, FIG. 4)
XAAGGTYSSHFGPLTWVSKPQGGAA, wherein X is Ac-D-Trp [EMP1SS, reference compound]	does not bind to the target		
XQRLHCLYLKH (X: Ac-D-Trp) [TNF-α-DW]	binds to the target protein		
5′-CCCGCCTCCCGCCCCCCGTCC-[SPC18]5-A*-C*-C*-A*-3′ [an21-ACCA]		0.007%	0.015%
